In the supplement of paper PMC9170038:

Test system: MS2 coat protein
Assay: apparent KD of MS2 coat protein; higher = weaker reporter binding
Settings: Eterna round: R107
Procedure, shortened: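 On-chip transcription from Illumina sequencing clusters produced the designed RNA switches. These were titrated with SNAP-549-labelled MS2 coat protein (twofold steps, 0.7 or 1.5 nM to 3 µM) in 100 mM Tris-HCl pH 7.5, 80 mM KCl, 4 mM MgCl2, with or without constant ligand. The apparent KD given is the per-design median of normalised cluster binding-curve fits.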

[1] = input ligand: theophylline 20 uM
[2] = input ligand: theophylline 2 mM
[3] = input ligand: tryptophan 2.4 mM

| Sequence | apparent KD of MS2 coat protein (input ligand: arginine 13.2 mM) | apparent KD of MS2 coat protein [1] | apparent KD of MS2 coat protein [2] | apparent KD of MS2 coat protein (input ligand: none) | apparent KD of MS2 coat protein [3] |
| --- | --- | --- | --- | --- | --- |
| GAUCAAAGAUCACAUGAGGAUCACCCAUGUCGAGGACCGGUACGGCCGCCACUCGCGGCGGUGAAAAUAGAUACAAAGUAUCUAU [Ex_TrypA - ViennaApproves] | 40.1 nM | 83.9 nM | 86.1 nM |  |  |
| CAUCCUAGUACAUGAGGAUCACCCAUGUAUCGAGGACCGGUACGGCCGCCACUCGAAUGGCGGAUCGUUGAUCCUUUAGGAUGAA [Tryp A Ex t4] | 16.5 nM | 20.7 nM | 20.9 nM | 14.3 nM | 19.2 nM |
| GCAAUACAUGAGGAUCACCCAUGUGCAGAUACCAGAGGUGUAUGCCUCCCUUGGCAGCUGCGACGCUCUGGCAUCUUGUGGGAUG [Same State Theophylline A GF19] | 22.2 nM | 73.7 nM |  |  | 52 nM |
| GUGGGUUUGCGAAGGAGCGGGUAUGUUUUCUACUGGAUCCUAACAUGAGGAUCACCCAUGUCCCAGGUAGGUCGCGCGGGCUUGG [12.Z] | 49.7 nM | 81.9 nM | 209 nM | 215 nM | 56.8 nM |
| CGACGAGACCUGGAUACCAGCGACAUGAGGAUCACCCAUGUAUGUGGAUCAGCCAUGAUAUGCCCUUGGCAGCCACCGAGGUCGG [PPPMULLIN] | 7.81 nM | 20.8 nM | 31.7 nM | 11.6 nM | 12.3 nM |
| ACAUGAGGAUCACCCAUGUAAUCAUCAGAAGGAGCGUGGAAUAACACAGGUAGGUCGCUGAUGUUAUGUUAAAAUGGUUCGUGAA [JR_ExcArginiA_Sub002] | 18.8 nM | 23.7 nM | 17.3 nM | 19.1 nM | 22.5 nM |
| CUGCCAUGCAGAGAUACCAGUGAGCUCAGAACAUGAGGAUCACCCAUGUAGGUUGCCGAUCACCCUUGGCAGCUCUGCAUGGCAG [*$+%!] | 38.7 nM | 28.4 nM | 10.9 nM | 30.8 nM | 29.6 nM |
| AUAAUUGGGUUAAUUAGUUUUAGGUCCAGUCGAGGACCGGUACGGCCGCCACUCGUUCCGAGAUACAUGAGGAUCACCCAUGUUA [JR_ExcTryptoA_Sub015] | 17.3 nM | 34.5 nM | 31 nM |  |  |
| GUCGGUACGUCGGCAAAGCCGAUGUGCCAGCGAGGACCGGUACGGCCGCCACUCGUACAUGAGGAUCACCCAUGUCCGGUCCGAC [Omei Trp SS A C v4] | 44.7 nM | 139 nM | 169 nM | 134 nM | 155 nM |
| GAACAAGGUUUCUUGUUCGGUCGCUGAGAAGGAGCGCGGUAACCCGCAGGUAGGUCGCUCAGAAAUACAUGAGGAUCACCCAUGU [Anaa] | 17.4 nM | 26.4 nM | 21.7 nM | 18.7 nM | 17.8 nM |
| GGGUAAGAUCCGGAUACCAGCGAACAUGAGGAUCACCCAUGUGAAAUAAGAUAGAAUAAACGCCCUUGGCAGCCGAAAUAGAGUU [Same State Theophylline B GF 3] | 41.3 nM | 81.9 nM |  |  | 88.9 nM |
| AGGACAUCGGGAAGGAGCGCAUCCAAACCACACAUGAGGAUCACCCAUGUAUAAAUAUGCAUGCAGGUAGGUCGCCCGGUGUCUC [Veaza] | 77 nM | 140 nM | 137 nM | 109 nM | 108 nM |
| UGUACCUAGUCGGCCGCCACUCCAAAAGGAGAGGAUCACCCUCCUAAACGAGUCAAAGACUCGAGGAGGACCGGGACUAGGUACU [Palindromic MS2 #AlternativeMS2 #Palindrome #StaticStem] | 30 nM | 41.8 nM | 33.9 nM | 30.4 nM | 14 nM |
| GCAUUACAUGAGGAUCACCCAUGUCUAGAUACCAGAUUUGUUUGAAUCCCUUGGCAGCUAGUGGACCACCGUACACGACAUACUA [theeternabot_sameState_MS2_Theo_A_17] | 29.8 nM | 47.1 nM |  |  | 44 nM |
| UAAUAAGUACCGGUUCUCAGAUCCUCAUGUCGAGGACCGGUACGGCCGCCACUCGAAACAUGAGGAUCACCCAUGUAAUAAUAAU [#07 Exclusion Tryptophan A] | 23.5 nM | 67.1 nM | 54.5 nM |  |  |
| GCUGUACCAUGAAGGAGCGUCGUUGAUUGAGAAUACACAUGAGGAUCACCCAUGUUUUUAUGACAGGUAGGUCGCAUGGUACAGC [SSAB #16] | 13.8 nM | 25.1 nM | 18.9 nM | 12.9 nM | 12.1 nM |
| GUGCCGCAUUCACAUGAGGAUCACCCAUGUCGAGGACCGGUACGGCCGCCACUCGACGUGCUUACAGGUCCUUUACGGCCCAAUA [Biedxele] | 30.7 nM | 71.3 nM | 36.9 nM |  |  |
| CACGAAAGAUCGGCCGCCACUAAUCGAUGUGUUCUUUCACAUGAGGAUCACCCAUGUUCUUGCGUUAGGACCGGGAUUGAGCGUG [#01 Exclusion Tryptophan B] | 32.1 nM | 50.1 nM | 52.4 nM |  |  |
| AGAGUUAGACAAAAGUCUAGCUCACCAGAAGGAGCGUCCGAAAGGACAGGUAGGUCGCUGGUGCUUGAGGAUCACCCAAGUUCCU [ArgAS 22 #OpenEnded #AlternativeMS2] | 82.7 nM | 121 nM | 204 nM | 96.1 nM | 128 nM |

| Sequence | apparent KD of MS2 coat protein (input ligand: arginine 13.2 mM) | apparent KD of MS2 coat protein [1] | apparent KD of MS2 coat protein [2] | apparent KD of MS2 coat protein (input ligand: none) | apparent KD of MS2 coat protein [3] |
| --- | --- | --- | --- | --- | --- |
| AGCGUGCAUAGGAAAACUAUGUACGCAAAUCGAGGACCGGUACGGCCGCCACUCGUCCUCAACAUGAGGAUCACCCAUGUAAUAA [Mat - Exclusion - Trytophan A - D9] | 18.9 nM | 26.7 nM | 22.5 nM |  |  |
| AGCGCGAAUAGAUCCAAAGUUAUUAGUGAGCGAGGACCGGUACGGCCGCCACUCGUGGCUCUACAUGAGGAUCACCCAUGUACAU [theeternabot_exclusion_MS2_Trp_A_10] | 52.2 nM | 234 nM | 384 nM |  |  |
| AGUUUAGACACGGCCGCCACUCGUGACAGAUUUCGCAGUGGUCAACAUGAGGAUCACCCAUGUCUGAGGACCGGGUGUUGAGUUU [XTryp B #7] | 45.2 nM | 48.7 nM | 53.4 nM |  |  |
| CAUACUUUAGUAUGACAUGUGGGCAGUGAUACCAGAUACGAAAGUAUCCCUUGGCAGCACAACAUGAGGAUCACCCAUGUAAUUA [Theophylline A 2] | 26.1 nM | 52 nM |  |  | 37.3 nM |
| UCACAUGAGGAUCACCCAUGUACAGGCGAUACCAGCCGUACAUUGGGCCCUUGGCAGCGCAUCGAGACCUUUAUAAGCACCUCGG [Ceusbi] | 24.5 nM | 127 nM |  |  | 81.6 nM |
| AUACAUGAGGAUCACCCAUGUAUAGUUGAAGGAGCGACCAGAGGGUCAGGUAGGUCGCAGCACAUGAGGAUCACCCAUGUAUUUU [#1 Exclusion - Arginine A Attempt #14 (Inspired by Pi)] | 32.6 nM | 40.3 nM | 35.1 nM | 38 nM | 27.3 nM |
| AGAAUAUAGUCGGCCGCCACUCUACAUACAUGAGGAUCACCCAUGUUUACAUAGUGGAAACACAUGAGGACCGGGACAUAGGCAU [#16 Same State - Tryptophan B] | 8.17 nM | 13.2 nM | 11 nM | 12.2 nM | 9.98 nM |
| UCGCUCUGGGUGAAUUCCGGAGAUGUGGAAGGAGCGGACGAAAGUCCAGGUAGGUCGCCAUCGAACAUGAGGAUCACCCAUGUAC [Same State - Arginine A (Freestyle 24)] | 55.8 nM | 105 nM | 165 nM | 93.2 nM | 93.7 nM |
| AGUAGCUGCCGAAGGAGCGCCGUGUUCCUACAUGAGGAUCACCCAUGUAGCGUUGGGUUACGGCAGGUAGGUCGCGGCAGAUAGG [#18 Same State - Arginine B] | 23.1 nM | 38.2 nM | 24.5 nM | 30 nM | 22.4 nM |
| UACAUGAGGAUCACCCAUGUAUGAAUGGAUACCAGAUAAAAUAAGGUCCCUUGGCAGCUAGUGAAUCGAGGGUGGGUAUCAUGUU [#14 Exclusion-TheophyllineA] | 10.9 nM | 13.7 nM |  |  | 9.89 nM |
| UGUCAUGGAAACAUGACUGGUUCUACCGGUCGAGGACCGGUACGGCCGCCACUCGGUUGGUGGCACAUGAGGAUCACCCAUGUUA [SS Tryp A #13] | 28.5 nM | 51.8 nM | 44.7 nM | 30.3 nM | 29.7 nM |
| ACUAGAGGUGGAAGGAGCGGGAGACAUGAGCAUCACAUGAGGAUCACCCAUGUAGGAUCAUCCCAGGUAGGUCGCCAUGUCGAAA [h.hgmullin] | 88.4 nM | 290 nM | 218 nM | 363 nM | 173 nM |
| GCUAGGUCAUCGGCCGCCACUAACGAUGGCUCCGACAUGAGGAUCACCCAUGUGCCACUUGCGCAUAGGACCGGGAUGACCUAGC [SSTB NP+V+V2 #1] | 17.7 nM | 24.3 nM | 17.2 nM | 15 nM | 11.5 nM |
| UGUAUGGACUGAAGGAGCGGGUAAUAAAUCUGAGGAUCACCCAGGUAAUAGGCGAAAGCCGCCCAGGUAGGUCGCAGUCCAUACU | 13.3 nM | 27.5 nM | 18.8 nM | 14.7 nM | 23.1 nM |
| GCUACAUGAGGAUCACCCAUGUAUGCGAGCCGAGGACCGGUACGGCCGCCACUCGCUUAACAUGAGGAUCACCCAUGUUGCUCGC [SSTA DOUBLE!!! :-D #18] | 19.7 nM | 36.2 nM | 28.1 nM |  |  |
| GGCACCAGGAGAAGGAGCGUGAAGACAUGAGGAUCACCCAUGUAGAGGCGCCGACGGCGUUCGCAGGUAGGUCGCUCCUGGUGCC [#1 Same State - Arginine B Attempt #16 (HarryS)] | 20.9 nM | 32.3 nM | 23.5 nM | 21 nM | 29.3 nM |
| AAGAGUUGACAAAAGUCAGCUCAAACCGAAGGAGCGGGAGAAAUCCCAGGUAGGUCGCGGUUACAUGAGGAUCACCCAUGUUCCU [ArgAS 6 #BothOrNeither #OpenEnded] | 68.1 nM | 376 nM | 300 nM | 355 nM | 273 nM |
| AUCAUGGCCAUCGAUACCAGCUACAUGAGGAUCACCCAUGUAAACGGCCCGGUGAGAUGUAGCCCUUGGCAGCGAAGGGUCAAGG [Ratimatiqu] | 12.4 nM | 23.1 nM | 120 nM | 16.5 nM | 17 nM |
| CCUUAACAUGAGGAUCACCCAUGUCUGGAUACCAGAUACAGAUAAAUCCCUUGGCAGCCAAAAUAUGAAAGAAAUAAAAUAAGAA [theeternabot_sameState_MS2_Theo_A_29] | 27.5 nM | 66.3 nM |  |  | 50.2 nM |
